In patent US20240285782A1, “METHODS FOR USING BIOADHESIVE AND STERIC INTERACTIONS OF COPOLYMERS WITH AT LEAST TWO MOIETIES TO MINIMIZE ADVERSE EFFECTS MEDIATED BY EXTERNAL INFLUENCES ON CELL, TISSUE, ORGAN SYSTEM, AND ORGANISM BIOLOGY” (priority 2021, published 2024):
Where two headings read alike, the source gives them in different places.

Columns and labels:
corneal cell = conditions: low dose exposure; cited from earlier work
[1] = cited from earlier work

| Compound | toxicity to cells, corneal cell death (corneal cell) | toxicity (positive control, pilot evaluation FIG. 8) (HCE-T cells) | half-life ([1]; after the first infusion) [days] | half-life ([1]; in steady state) [days] | time to reach steady state ([1]; in vivo) [days] |
| --- | --- | --- | --- | --- | --- |
| CCN(c1nc(N)c(C(=O)N=C(N)N)nc1Cl)C(C)C [EIPA, 5-(N-ethyl-N-isopropyl)amiloride] | toxic | toxic | – | – | – |
| Belnatomab mafodotin: ADC cited as an example for half-life | – | – | 12 | 14 | 70 |
